Reference: the RNAGym collection of RNA variant scans (doi:10.1073/pnas.2313332121)

B1: TPR t1 (parent)
chain: GACCAAUCUGCCCUCAGAGCUCGAGAACAUCUUCGGAUGCAGAGGAGGCAGGCUUCGGUGGCGCGAUAGCGCCAACGUCCUCAACCUCCAAUGCAUCCCACCACAUGAUGAUGCCUGAAGAGCCUUGGUUUUUUG

Variants of: B1
Assay: polymerase ribozyme fitness, log enrichment relative to wild type (log ratio); higher = more active; in vitro selection for triplet polymerase activity
Method in brief: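 Fitness is a logarithmic measure of how a genotype enriched relative to the wild type, with replicate averages weighted by inverse variance. The logarithm uses base 2, and enrichment came from Illumina sequencing of input and output libraries. Those libraries were PCR-built, transcribed mutants of each subunit of a heterodimeric triplet polymerase ribozyme, passed through one triplicate in vitro selection round that included frozen incubation at −7 °C, gel excision of extended constructs and streptavidin-bead capture. Genotypes were kept only if they had ≥10 input reads and ≥1 read per output.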

Variant	polymerase ribozyme fitness (log ratio)
GACCAAUCUGCCCUCAGAGCUCGAGAACAUCUUCGGAUGCGGAGGAGGCCGGCUUCGGUGGCGCGAUAGCGCCAACAUCCUCAACCUCCAAUGCAUCCCACCACAUGAUGAUGCCCGAAGAGCCUUGGUUUUUUG [A41G A50C G77A U116C]	-3.42
GACCAAUCUGCCCUCAGAGCUCGAGAACAUCUUCGGAUGCCGAGGAGGCACGCUUCGGUGGCGCGAUAGCGCCAACGUCCUCAACCUCCAAUGCAUCCCACCACAUGAUGAUGCCUGAAGAGCCUUGGUUUUUUG [A41C G51C]	-6.13
GACCAAUCUGCCCUCAGAGCUCGAGAACAUCUUCGGAUGCGGAGGAGGCAUGCUUCGGUGGCGCGAUAGCGCCAACGUCCUCAACCUCCAAUGCAUCCCACCACAUGAUGAUGGCUGAAGAGCCUUGGUUUUUUG [A41G G51U C114G]	-5.83
GACCAAUCUGCCCUCAGAGCUCGAGAACAUCUUCGGAUGCGGAGGAGGCAGGCUUCGGUGCCGCGAUAGCGCCAACGUCCUCAACCUCCAAUGCCUCCCAUCACAAGAUGAUGCCUGAAGAGCCUUGGUUUUUUG [A41G G61C A95C C101U U106A]	-3.41
GACCAAUCUGCCCUCAGAGCUCGAGAACAUCUUCGGAUGCCGAGGAGGCAGGCUUCGGUGGCCCGAUAGCGCCAACGUCCUCAACCUCCAAUGCAUCCCACCACAUGAUGAUGCCUGAAGAGCCUUGGUUUUUUG [A41C G63C]	-2.4
GACCAAUCUGCCCUCAGAGCUCGAGAACAUCUUCGGAUGCCGAGGAGGCAGGCUUCGGUGGCGCGAUAGCUCCAACGUCCUCAACCUCCAAUGCAUCUCACCACAUGAUGAUGACUGAAGAGCCUUGGUUUUUUG [A41C G71U C98U C114A]	-5.3
GACCAAUCUGCCCUCAGAGCUCGAGAACAUCUUCGGAUGCCGAGGAGGCAGGCUUCGGUGGCUCGAUAGCGCCAACCUCCUCAACCUCCAAUGCAUCCCUCCACAUGAUGAUGCCUGAAGAGCCUUGGUUUUUUG [A41C G63U G77C A100U]	-4.24
GACCAAUCUGCCCUCAGAGCUCGAGAACAUCUUCGGAUGCCGAGGAGGCAGGCUUCGGUGGCCCGAUAGCGCCAACUUCCUCAACCUCCAGUGCAGCCCACCACAUGGUGAGGCCUGAAGAGCCUUGGUUUUUUG [A41C G63C G77U A91G U96G A108G U112G]	-6.24
GACCAAUCUGCCCUCAGAGCUCGAGAACAUCUUCGGAUGCCGAGGAGGCAAGCUUCGGUGGCGCGAUAGCGCCAACGUCCUCAACCUCCAAUGCAUCCCACCACAUGAUGAUGGCUGAAGAGCCUUGGUUUUUUG [A41C G51A C114G]	-6.23
GACCAAUCUGCCCUCAGAGCUCGAGAACAUCUUCGGAUGCCGAGGAGGCAGGCUUCGGUGUCGCGAUAGCGCCAACGUCCUCAACCUCCAAUCCAUCCCACCACAUGAUGAUGCCUGAAGAGCCUUGGUUUUUUG [A41C G61U G93C]	-1.3
GACCAAUCUGCCCUCAGAGCUCGAGAACAUCUUCGGAUGCGGAGGAGGCAGGCUUCGGUGGCGUGAUAGCGCCAACGUCCUCAACCUCCAUUGCAUCCCACCACAAGAUAAUGCCUGAAGAGCCUUGGUUUUUUG [A41G C64U A91U U106A G110A]	-5.83
GACCAAUCUGCCCUCAGAGCUCGAGAACAUCUUCGGAUGCGGAGGAGGCAGGCUUCGGUGGCGCGAUAGCGCCAACGUCCUCAACCUCCAUUGCAUCCCACCACAUGAUGAUGCCUGAAGAGCCUUGGUUUUUUG [A41G A91U]	-1.63
GACCAAUCUGCCCUCAGAGCUCGAGAACAUCUUCGGAUGCGGAGGAGGCAGGCUUCGGUGGCGCGAUAGCGCGAACGUCCUCAACCCCCAAUGCAUCCCACCAUAUGAUGAUGCAUGAAGAGGCUUGGUUUUUUA [A41G C73G U87C C104U C115A C123G G135A]	0.00105
GACCAAUCUGCCCUCAGAGCUCGAGAACAUCUUCGGAUGCGGAGGAGGCAGGCUUCGGUGGCGCGAUACCGCCAACGUCCUCAACCUCCAAUGCAUCCCACCACAUGAUGAUGCCUGAAGAGCCUUGGUUUUUUG [A41G G69C]	-1.9
GACCAAUCUGCCCUCAGAGCUCGAGAACAUCUUCGGAUGCCGAGGAGGCAGGCUUCGGUGGCGCGAUAGCGCCAACGUCCUCAACCUCCAAUGCAUCCCACCACAUGAUGAUGCCUGAAGAGCCUUGGUUUUUUU [A41C G135U]	-1.68
GACCAAUCUGCCCUCAGAGCUCGAGAACAUCUUCGGAUGCCGAGGAGGCAGGCUUCGGUCGCGCGAUAGCGCCAACGUCCUCAACCUCCAAUGCAUCCCAGCACAUGAUGAUGCCUGAAGAGCCUGGGUUUCUUG [A41C G60C C101G U126G U132C]	-4.76
GACCAAUCUGCCCUCAGAGCUCGAGAACAUCUUCGGAUGCGGAGGAGGCAGGCUUCGGUGGCGCGAUGGCGCCAACGUCCUUAACCUCCAAUGCAUCCCACCACAUGAUGAUGCCUGAAGAGCCUUGGUUUUUUG [A41G A68G C82U]	-5.28
GACCAAUCUGCCCUCAGAGCUCGAGAACAUCUUCGGAUGCGGAGGAGGCAGGCUUCGGUGGCGCGAUAGCGCCAACGUCCUCAACCUCCAAUGCAUCCCACUACAUGAUGAUGCCUGAAGAGCCUUGGUUUUUUG [A41G C102U]	-3.18
GACCAAUCUGCCCUCAGAGCUCGAGAACAUCUUCGGAUGCCGAGGAGGCAGGCUUCGGUGGCGCGAUAGCGCCAACCUCCUUAACCUCCAAUGCAUCCCACCACAUGAUGAUGCCUGAAGAGCCUUGGUUUUUUG [A41C G77C C82U]	-1.51
GACCAAUCUGCCCUCAGAGCUCGAGAACAUCUUCGGAUGCGGAGGUGGCAGGCUUCGGUGGCGCGAUAGCGCCAACGUCCUCAACCUCCAAUGCAUCCCACCACAUGAUGAUGCCUGAAGAGUCUUGGUUUUUUG [A41G A46U C123U]	-2.51
GACCAAUCUGCCCUCAGAGCUCGAGAACAUCUUCGGAUGCCGAGGAGGCAGGCUUCGGUGGCGCGAUAGCGCCAACGUCCUCAACCUCCAAUGCAUCCCACCACAUGAUGAUCCCUGAAGAGCCUUGGUUUUUUG [A41C G113C]	-2.86

Variant	polymerase ribozyme fitness (log ratio)
GACCAAUCUGCCCUCAGAGCUCGAGAACAUCUUCGGAUGCGGAGGAGGCAGGCUUCGGUGGCGCGAUAGCCCCAACGUCCUCAACCUCCAAUGCAUCCCACCACAUGAUGAUGCCGGAAGAGCCUUGGUUUUUUG [A41G G71C U116G]	-3.99
GACCAAUCUGCCCUCAGAGCUCGAGAACAUCUUCGGAUGCGGAGGAGGCAGGCUUCGGUGGCGCGAUAGCGCCAACGUCCUCAACCUCCAAUGCAUCCCACCACAUGAUGCUGCCUGAAGAGCCUUGGUUUUUUG [A41G A111C]	-0.47
GACCAAUCUGCCCUCAGAGCUCGAGAACAUCUUCGGAUGCCGAGGAGGCAGGCUUCGGUGGCGCGAUAGCGCCAACGUCCUCAACCUCCAAUGCAUCCCACCACAUAAUGAUGCCUGAAGAGCCUUGGUUUUUUG [A41C G107A]	-5.61
GACCAAUCUGCCCUCAGAGCUCGAGAACAUCUUCGGAUGCGGAGGAGGCAGGCUUCGGUGGCGCGAUAGCGCCAACGUCCUCUACCUCCAAUGCAUCCCACCACAUGAUGAUGCCUGAAGAGCCUUGGUUUUUUG [A41G A83U]	-0.499
GACCAAUCUGCCCUCAGAGCUCGAGAACAUCUUCGGAUGCGGAGGAGGGAGGCUUCGUUGGCGCGAUAGCGCCAACGUACUCAACCUCCAAUGCAUCCCACCACAUGAUGAUGCCUGAAGAGCCUUGGUUUUUUG [A41G C49G G58U C79A]	-6.14
GACCAAUCUGCCCUCAGAGCUCGAGAACAUCUUCGGAUGCCGAGGAGGCAGGCUUCGGUGGCGCGAUAGCGCCAACGUCCUCAACCUCCAAUGCAUCCCACCACAUGAUGAUGCCUUAAGAGAGUUGGUUUUUUG [A41C G117U C123A C124G]	-3.97
GACCAAUCUGCCCUCAGAGCUCGAGAACAUCUUCGGAUGCGGAGGAGGCAGGCUUCGGUGGCGCGAUGGCGCCAACGUCCUCAACCUCCAAUGCAUCCCACCACAUGAUGAUGCCUGAAGAGCCUUGGUUUUUUG [A41G A68G]	-3.96
GACCAAUCUGCCCUCAGAGCUCGAGAACAUCUUCGGAUGCGGAGGAGGCAAGCUUCGGUGGCGCGAUAGCGCCAACGUCCUCAACCUCCCAUGCAUCCCACCACAUGAUGAUGCCUGAAGAGCCUUGGUUUUUUG [A41G G51A A90C]	-5.76
GACCAAUCUGCCCUCAGAGCUCGAGAACAUCUUCGGAUGCGGAGGAUGCAGGCUUCGGUGGCGCGAUAGCGCCAACGUCCUCAACCUCCAAUGCAUCCCACCACAUGAUGAUGCCUGAAAAGCCUUGGUUUUUUG [A41G G47U G120A]	-3.73
GACCAAUCUGCCCUCAGAGCUCGAGAACAUCUUCGGAUGCCGAGGAGCCAGGCUUCGGUGGCGCGAUAGCGCCAACGGCCUCAACCUCCAAUGCAUCCCACCACAUGAUGGUGCCUGAAGAGCCUUGGUUUUUUG [A41C G48C U78G A111G]	-1.93
GACCAAUCUGCCCUCAGAGCUCGAGAACAUCUUCGGAUGCCGAGGAGGCAGGCUUCGGUGGCCCGAUAGCGCCAACGUCCUCAACCUCCAAUGCAUCCCACCACGUGAUGAUGCCUGAAGAGCCUUGGUUUUUUG [A41C G63C A105G]	-5.05
GACCAAUCUGCCCUCAGAGCUCGAGAACAUCUUCGGAUGCGGAGGAGGCAGGCUUCGGUGGCGCGAUAGCGCCAACGUCCUCAACCUCCAAUGCAUCCCACCACAUGAUGAUGCCUGAAGAGCCUUGGUUUUUUG [A41G]	-0.0621
GACCAAUCUGCCCUCAGAGCUCGAGAACAUCUUCGGAUGCGGAGGAGGCAGGCUUCGGUGGCACGAUAGCGCCAGCGUCCUCAAACUCCAAUGCAUCCCACCACAUGAUGAUGCCUGAAGAGCCUUGGUUUUAUG [A41G G63A A75G C85A U133A]	-3.04
GACCAAUCUGCCCUCAGAGCUCGAGAACAUCUUCGGAUGCCGAGGAGACAGGCUUCGGUUGCGCGAUAGCGCCAACGUCCUCAACCUCCAAUGCAUCCCACCACAUGAUGAUGCCUGAAGAGCCUUGGUUUUUUG [A41C G48A G60U]	-1.76
GACCAAUCUGCCCUCAGAGCUCGAGAACAUCUUCGGAUGCGGAGGAGGCAGGCUUCGGUGGCUCGAUAGCGCCAACGUCCUCAACCUCCAAUGCAUCCCACCACAUGAUGAUGCCUGAAGAGCCUUGGUUUUUUG [A41G G63U]	-2.37
GACCAAUCUGCCCUCAGAGCUCGAGAACAUCUUCGGAUGCCGAGGAGGCAGGCUUCGGUGGCGCGAUAUCGCCAACGUCCUCAACCUCCAACGCAUCCCACCACAUGAUGAUGCCUGAAGAGCCUUGGUUUUUUG [A41C G69U U92C]	-0.226
GACCAAUCUGCCCUCAGAGCUCGAGAACAUCUUCGGAUGCGGAGGAGGCAGGCUUAGGUGGCGCGAUAGCGCCAACGUCCUCAACCUCCAAUGCAUCCCACCACAUGAUGAUGCCUGAAGAGCCUUGGUUUUUUG [A41G C56A]	-1.81
GACCAAUCUGCCCUCAGAGCUCGAGAACAUCUUCGGAUGCGGAGGAGGCAGGCUUCGGUGGCGCGAUAGCGCCAACGUGCUCAACCUCCAAUGCAUCCCACCACAUGAUGAUGACUGAAGAGCCUUGGUUUUUUG [A41G C79G C114A]	-5.3
GACCAAUCUGCCCUCAGAGCUCGAGAACAUCUUCGGAUGCGGAGGAGACAGGCUUCGGUGGCGCGAUAGCGCCAACGUCCUCAACCUCCAAUGCAUCCCACCACAUGAUGAUGCCUGAAGAGCCUUGGUUUUUUG [A41G G48A]	-1.31
GACCAAUCUGCCCUCAGAGCUCGAGAACAUCUUCGGAUGCCGAGGAGGCAUGCUUCGGUGGCGCGAUAGCGCCAACGUCCUCAACCUCCAAUGCAUCCCACCACAUGAUGAUGCCUGAAGGGCCUUGGUUUUUUG [A41C G51U A121G]	-3.12
GACCAAUCUGCCCUCAGAGCUCGAGAACAUCUUCGGAUGCGGAGGAGGCAGGCUUAGGUGGCGCGAUAGCGCCAUCGUCCUCAACCUCCAAUGCAUCCCACCACAUGAUGAUGCCUUAAGAGCCUUGGUUUUUUG [A41G C56A A75U G117U]	-3.99
